Assay results taken from patent EP4442275A1, “ANTI-TYPE II COLLAGEN ANTIBODIES” (ModiQuest B.V., priority 2023, dated 2024).
Entries after “also recorded” stand apart in the source; their conditions may differ.

B1: [^111In]In-DTPA-MQ4.112hz_3_1: MQ4.112hz_3_1 conjugated with DTPA and labeled with 111In (conjugate)
VH: DVQLQESGPGLVKPSETLSLTCAVSGYSITSDYYWHWIRQFPGKGLEWMGYISYDGSNNYNPSLKSRVTISVDTSKNQFSLKLSSVTAADTAVYYCARDDDAMDYWGQGTLVTVSS
VL: DIQMTQSPSSLSASVGDRVTITCRASQDISNYLNWYQQKPGKAPKLLIYYTSRLHSGVPSRFSGSGSGTDFTFTISSLQPEDIATYYCQQGNTLPPTFGQGTKVEIK
B2: DTPA-IrDye 800CW anti-COLL II (MQ4.112 hz3_1): MQ4.112hz_3_1 dually conjugated with DTPA and IrDye 800CW, substitution ratio IrDye 800CW= 1.83 (conjugate)
VH: DVQLQESGPGLVKPSETLSLTCAVSGYSITSDYYWHWIRQFPGKGLEWMGYISYDGSNNYNPSLKSRVTISVDTSKNQFSLKLSSVTAADTAVYYCARDDDAMDYWGQGTLVTVSS
VL: DIQMTQSPSSLSASVGDRVTITCRASQDISNYLNWYQQKPGKAPKLLIYYTSRLHSGVPSRFSGSGSGTDFTFTISSLQPEDIATYYCQQGNTLPPTFGQGTKVEIK

Experiments:
human cartilage explants [1] = biological target: T1, human cartilage explants (Homo sapiens, UniProt P02458); assay: Binding of 111In-labeled DTPA-conjugated antibodies to human cartilage explants (gamma counting); details: Figure 8
T1 construct: From surgical waste material obtained after total knee arthroplasty; from tissue; host or cells: human articular cartilage from joint replacement surgery of OA patients

human cartilage explants [2] = biological target: T1, human cartilage explants; assay: Binding of DTPA-IrDye 800CW conjugated antibodies to human cartilage with or without trypsin (Odyssey CLX imaging); details: 4 µg/ml, 4 H, 37°C; preserved regions of OA cartilage; Figure 9
Experimental: From surgical waste material obtained after total knee arthroplasty (Patient number SMK1186), human cartilage from the macroscopically preserved regions was isolated with a surgical blade, and 6 mm punches were made using a biopsy punch. Human cartilage explants were overnight incubated in DMEM/F12 without FBS supplemented with 10.000 U/mL penicillin/streptomycin at 37°C with 5% CO2. Half of the explants were incubated for 1 H with 2.5% Trypsin-EDTA in PBS at 37°C on a roller in a 50 ml falcon tube. The other half was incubated under the same conditions in PBS. The trypsin-EDTA was replaced by 1% FBS in PBS (to block the enzymatic activity of trypsin), in which the explants were incubated for 15 min. Cartilage explants were washed with PBS (3x 5 min). Three explants/condition were divided over sterile FACS tubes and exposed 4 µg/ml DTPA-IrDye 800CW isotype (2.201a) (substitution ratio IrDye 800CW= 1.54) or DTPA-IrDye 800CW anti-COLL II antibody (MQ4.112 hz3_1) (substitution ratio IrDye 800CW= 1.83) in DMEM/F12 media supplemented with 0.5% BSA (final volume was 1 ml) for 4 H on a roller at 37°C. […]
The explants were transferred to the bottom of wells of a 96-well plate to image with the Odyssey CLX near infrared imaging system. The fluorescent signal was measured in manually drawn ROI around the cartilage explants which was corrected for background signal by the software. […]

human cartilage = biological target: T2, human cartilage (Homo sapiens, UniProt P02458); assay: Ex vivo binding to human cartilage with different stages of OA-induced damage (Odyssey CLX imaging)
T2 construct: From surgical waste material obtained after total knee arthroplasty; from tissue; host or cells: human articular cartilage from joint replacement surgery of OA patients
Experimental: From surgical waste material obtained after total knee arthroplasty (Patient number SMK1180), human cartilage from the macroscopically preserved, medium damage and severe damaged regions were isolated with a surgical blade. Human cartilage explants were overnight incubated in DMEM/F12 without FBS supplemented with 10.000 U/mL penicillin/streptomycin at 37°C with 5% CO2. Punches (6 mm) were generated using a biopsy punch. Three explants/damage condition were divided over sterile FACS tubes and exposed 4 µg/ml DTPA-IrDye 800CW isotype (2.201a) (substitution ratio IrDye 800CW= 1.54) or DTPA-IrDye 800CW anti-COLL II antibody (MQ4.112 hz3_1) (substitution ratio IrDye 800CW= 1.83) in DMEM/F12 media supplemented with 0.5% BSA (final volume was 1 ml) for 4 H on a roller at 37°C. After this incubation the samples were transferred to 50 ml falcon tubes (1 tube/condition, 3 punches/tube) and washed with PBS (50 ml) at 37°C (1x 30 min), followed by an o/n wash with PBS on a shaker at 4°C.
The explants were transferred to the bottom of wells of a 96-well plate to measure the cartilage associated fluorescence with the Odyssey CLX near infrared imaging system (Figure 11). The cartilage was fixed in formalin for 4 H and thereafter transferred to 70% ethanol until processed/embedded in paraffin. […]

T1 sequence (P02458 182-1241 limits assumed): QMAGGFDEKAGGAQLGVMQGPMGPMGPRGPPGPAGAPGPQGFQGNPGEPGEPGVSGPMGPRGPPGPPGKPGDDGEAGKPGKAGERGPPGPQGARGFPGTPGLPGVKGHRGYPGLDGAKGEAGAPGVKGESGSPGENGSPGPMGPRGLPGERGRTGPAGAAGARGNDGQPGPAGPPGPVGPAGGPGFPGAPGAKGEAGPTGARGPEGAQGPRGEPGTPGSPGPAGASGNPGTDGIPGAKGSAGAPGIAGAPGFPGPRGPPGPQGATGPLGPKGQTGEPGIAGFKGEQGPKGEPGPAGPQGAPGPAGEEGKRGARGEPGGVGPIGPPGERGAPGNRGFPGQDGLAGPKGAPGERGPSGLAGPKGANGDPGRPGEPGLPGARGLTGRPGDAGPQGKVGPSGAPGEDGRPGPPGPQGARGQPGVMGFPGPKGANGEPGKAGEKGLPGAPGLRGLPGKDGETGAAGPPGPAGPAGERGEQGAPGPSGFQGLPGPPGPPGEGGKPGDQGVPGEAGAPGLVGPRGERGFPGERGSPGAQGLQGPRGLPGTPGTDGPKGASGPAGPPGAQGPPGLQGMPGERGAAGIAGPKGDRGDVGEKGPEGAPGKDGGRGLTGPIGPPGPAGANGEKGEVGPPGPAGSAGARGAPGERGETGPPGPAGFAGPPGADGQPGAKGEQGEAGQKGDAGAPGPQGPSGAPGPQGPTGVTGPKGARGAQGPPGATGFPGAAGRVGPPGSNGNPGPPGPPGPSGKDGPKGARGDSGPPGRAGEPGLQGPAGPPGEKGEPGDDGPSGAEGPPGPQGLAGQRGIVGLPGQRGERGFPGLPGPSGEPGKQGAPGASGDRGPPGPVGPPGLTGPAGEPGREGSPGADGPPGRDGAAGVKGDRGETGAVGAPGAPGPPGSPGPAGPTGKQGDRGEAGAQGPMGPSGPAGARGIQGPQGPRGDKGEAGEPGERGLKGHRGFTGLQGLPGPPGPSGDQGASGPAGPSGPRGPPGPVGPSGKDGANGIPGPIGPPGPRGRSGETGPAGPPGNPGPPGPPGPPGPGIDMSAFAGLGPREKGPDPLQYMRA
T2 sequence (P02458 182-1241 limits assumed): as above

| Molecule | cartilage associated radioactivity corrected for their weight, trypsin-damaged human cartilage compared to non-treated explants (human cartilage explants [1]; 4 µg/ml, 1.5 H, 37°C) | cartilage associated radioactivity/gram in trypsin-damaged human cartilage compared to isotype (human cartilage explants [1]; p<0.001, One-way ANOVA) | binding (fluorescent signal) to trypsin-induced damaged human cartilage explants compared to untreated explants (human cartilage explants [2]) | localization of the fluorescent signal in sections of the explants (human cartilage; Figure 11 bottom, compared with SafO staining) | binding (fluorescent signal) to cartilage when OA-damage increases (human cartilage; macroscopically preserved, medium damage and severe damaged regions, 4 µg/ml, 4 H, Figure 11, listed as DTPA-IrDye 800CW anti-COLL II antibody) |
| --- | --- | --- | --- | --- | --- |
| B1 | higher | higher | – | – | – |
| B2 | – | – | increased binding; also recorded: increases | localizes on the spots where visible cartilage damage is present | binds more; also recorded: increases |
